Patent publication US20230416365A1 (Hoffmann-La Roche, published 2023)
Each block holds one binder with its values, some of them ahead of it.

How the values were obtained:
Hu N(A2-B2)A-avi-His = biological target: T1, Hu N(A2-B2)A-avi-His (human, biotinylated at the avi tag (Example 2.2)); experiment: SPR, ProteOn XPR36, antigen on NLC chip, bispecific as analyte
T1 construct: also called hu N(A2-B2)A-avi-His B; CEACAM5-based antigen
T1 chain: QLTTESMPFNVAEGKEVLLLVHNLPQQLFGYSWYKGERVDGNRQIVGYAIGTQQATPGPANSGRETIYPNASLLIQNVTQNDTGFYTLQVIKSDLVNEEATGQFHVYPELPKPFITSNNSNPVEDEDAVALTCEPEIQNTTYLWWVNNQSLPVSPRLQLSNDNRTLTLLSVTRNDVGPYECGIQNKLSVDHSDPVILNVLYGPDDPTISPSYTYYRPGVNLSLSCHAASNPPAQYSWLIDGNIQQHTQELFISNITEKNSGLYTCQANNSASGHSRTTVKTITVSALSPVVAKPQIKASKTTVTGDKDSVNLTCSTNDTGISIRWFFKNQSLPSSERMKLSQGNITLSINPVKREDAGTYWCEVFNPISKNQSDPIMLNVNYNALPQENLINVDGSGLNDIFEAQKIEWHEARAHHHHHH

[1] = biological target: T2, human CD28 on CHO cells (parental cell line CHO-k1 ATCC #CCL-61, modified to stably overexpress human CD28) (human, UniProt P10747 19-220); experiment: flow cytometry on CHO-hCD28 cells
T2 construct: also called hu CD28; CHO-hCD28

human BCMA on IM-9 cells = biological target: T3, human BCMA on IM-9 cells (human, UniProt Q02223 1-184); experiment: flow cytometry on IM-9 cells
T3 construct: also called B-cell maturation antigen
T3 sequence: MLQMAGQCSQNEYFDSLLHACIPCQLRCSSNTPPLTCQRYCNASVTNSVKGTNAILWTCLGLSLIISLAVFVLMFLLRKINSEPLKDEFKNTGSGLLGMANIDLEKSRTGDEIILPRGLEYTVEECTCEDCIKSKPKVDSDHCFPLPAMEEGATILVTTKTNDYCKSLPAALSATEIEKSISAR

- Kd (Hu N(A2-B2)A-avi-His): 0.29 nM
B1: CEA-CD28(SA) 1+1 format (Molecule M) (bispecific antibody, human IgG1, kappa, L234A L235A)
heavy 1: not shown
light 1: not shown
heavy 2: QAVLTQPASLSASPGASASLTCTLRRGINVGAYSIYWYQQKPGSPPQYLLRYKSDSDKQQGSGVSSRFSASKDASANAGILLISGLQSEDEADYYCMIWHSGASAVFGGGTKLTVLSSASTKGPSVFPLAPSSKSTSGGTAALGCLVKDYFPEPVTVSWNSGALTSGVHTFPAVLQSSGLYSLSSVVTVPSSSLGTQTYICNVNHKPSNTKVDKKVEPKSCDKTHTCPPCPAPEAAGGPSVFLFPPKPKDTLMISRTPEVTCVVVDVSHEDPEVKFNWYVDGVEVHNAKTKPREEQYNSTYRVVSVLTVLHQDWLNGKEYKCKVSNKALGAPIEKTISKAKGQPREPQVCTLPPSRDELTKNQVSLSCAVKGFYPSDIAVEWESNGQPENNYKTTPPVLDSDGSFFLVSKLTVDKSRWQQGNVFSCSVMHEALHNHYTQKSLSLSP
light 2: EVQLVESGGGLVQPGRSLRLSCAASGFTVSSYWMHWVRQAPGKGLEWVGFIRNKANGGTTEYAASVKGRFTISRDDSKNTLYLQMNSLRAEDTAVYYCARDRGLRFYFDYWGQGTTVTVSSASVAAPSVFIFPPSDEQLKSGTASVVCLLNNFYPREAKVQWKVDNALQSGNSQESVTEQDSKDSTYSLSSTLTLSKADYEKHKVYACEVTHQGLSSPVTKSFNRGEC
notes: huIgG1 PG-LALA CrossFab, knob-into-hole; also called P1AE3127; anti-CEA (Medi-565) / anti-CD28 (TGN1412)

- EC50 [1]: 9.9 nM
- EC50 (human BCMA on IM-9 cells): 3.96 nM
B2: anti-BCMA-CD28 (SA_Variant 15) 1+1 format (Molecule 16D) (bispecific antibody, human IgG1, kappa, L234A L235A)
heavy 1: not shown
light 1: QVQLVQSGAEVKKPGASVKVSCKASGYTFTSYYIHWVRQAPGQGLEWIGSIYPGNVQTNYNEKFKDRATLTVDTSISTAYMELSRLRSDDTAVYFCTRSHYGLDWNFDVWGQGTTVTVSSASVAAPSVFIFPPSDEQLKSGTASVVCLLNNFYPREAKVQWKVDNALQSGNSQESVTEQDSKDSTYSLSSTLTLSKADYEKHKVYACEVTHQGLSSPVTKSFNRGEC
heavy 2: EVQLLESGGGLVQPGGSLRLSCAASGFTFSSYAMNWVRQAPGKGLEWVSAITASGGSTYYADSVKGRFTISRDNSKNTLYLQMNSLRAEDTAVYYCARYWPMSLWGQGTLVTVSSASTKGPSVFPLAPSSKSTSGGTAALGCLVEDYFPEPVTVSWNSGALTSGVHTFPAVLQSSGLYSLSSVVTVPSSSLGTQTYICNVNHKPSNTKVDEKVEPKSCDKTHTCPPCPAPEAAGGPSVFLFPPKPKDTLMISRTPEVTCVVVDVSHEDPEVKFNWYVDGVEVHNAKTKPREEQYNSTYRVVSVLTVLHQDWLNGKEYKCKVSNKALGAPIEKTISKAKGQPREPQVCTLPPSRDELTKNQVSLSCAVKGFYPSDIAVEWESNGQPENNYKTTPPVLDSDGSFFLVSKLTVDKSRWQQGNVFSCSVMHEALHNHYTQKSLSLSP
light 2: EIVLTQSPGTLSLSPGERATLSCRASQSVSAYYLAWYQQKPGQAPRLLMYDASIRATGIPDRFSGSGSGTDFTLTISRLEPEDFAVYYCQQYERWPLTFGQGTKVEIKRTVAAPSVFIFPPSDRKLKSGTASVVCLLNNFYPREAKVQWKVDNALQSGNSQESVTEQDSKDSTYSLSSTLTLSKADYEKHKVYACEVTHQGLSSPVTKSFNRGEC
notes: huIgG1 PG-LALA CrossFab; also called P1AE9053
